From US9803013B2, “Biological materials and uses thereof” (BioInvent International AB, priority 2005, dated 2017) come the findings set out here.

One series deals with PC-3 cells. In words: Apoptosis induction in carcinoma cells (cross-linked IgG, 16-24 hours, Annexin V/PI). The series is classed as cell-based, human. To be noted: PC-3, cross-linked IgG. As for the experimental part: The prostate carcinoma cell line PC-3 was grown in Complete Growth Medium (RPMI 1640, supplemented with 10% FCS, 10 mM HEPES, and 2 mM L-Glutamine) to 80% confluency in a 6 well plate. The prostate carcinoma cell line DU145 was grown in MEM with Earl's salts, supplemented with 10% FCS, 1 mM sodium pyruvate, and 1 mM non-essential amino acids and the derivate of a melanoma cell line MDA MB 435 was grown in DMEM supplemented with 10% FCS.
For apoptosis assays cells were washed in PBS and serially diluted B11 IgG1 (or B1 IgG1, Trastuzumab or negative antibody control for controls) was added to individual wells and binding was allowed during a 1-2 h incubation at 4° C. The cells were washed and Complete Growth Medium was added, containing cross-linking antibody, Fab′2 Goat anti-Human Fab′2, at 10 μg/ml. Cells were incubated in a humidified atmosphere, with 5% CO2 at 37° C., for 16-24 hours. […] The percentage apoptotic cells was determined by the formula: % apoptotic cells=100−% AF488−AV/PI−/−.
Cells were seeded in 6 well plates with Complete Growth Medium three days before the onset of the experiment. […] Cells were washed in ice-cold PBS, subjected to Annexin V/propidium iodide staining, and analysed for viability/apoptosis as described in example 5 above.

The next series has as its system T cells. Kind of series: T cell proliferation (CFSE). The conditions noted are these: immobilized (air-dried or wet coated) or in solution. It is filed as cell-based, human. How it is done:
(FIG. 23F) Antibody induced T-cell proliferation. CFSE-labeled T-cells were incubated with BI-505, isotype control IgG or anti-CD3 (okt-3) IgG hyperimmobilised to cell culture plates by air-drying “A” or wet-coating “W”. Cells were cultured for 6 days, and T cell proliferation was monitored by flow-cytometry as decreased CFSE signals.
Cytokine release and T cell proliferation are thought to be common causes of mild and severe adverse reactions to antibody therapy. In order to further investigate any undesirable effects of BI-505 on ICAM-1 expressing immune cells, we therefore assessed putative effects of BI-505 on peripheral blood mononuclear cell (PBMC) cytokine release and T cell proliferation. In order to maximize the chances of identifying any PBMC-agonistic properties of BI-505, we used two different antibody-coating protocols in which the antibody was hyper-cross-linked as previously described (Stebbings et al., 2007).
T cells used in the proliferation assay were stained with CFSE (carboxyfluorescein diacetate, succinimidyl ester; Invitrogen). The CFSE-labeled cells were seeded at a density of 150,000 cells/well in wet and air-dried antibody-coated plates. The cells were cultured for 6 days with one renewal of medium after 3 days. AccuCheck Count Beads (Invitrogen) were used to ensure accurate quantification of cell proliferation in the flow cytometry. […]

In a further series the test system is RPMI-8226 myeloma tumors. In words: Established RPMI-8226 tumors in SCID mice with macrophage or NK cell depletion. It is filed as in vivo, mouse. The text has this:
Fc-FcγR-interactions, in addition to enhancing antibody induced negative signalling and tumor PCD (Wilson et al., 2011), may involve both innate and adaptive arms of cellular immunity (Alduaij and Illidge, 2011; Park et al., 2010). Different approaches to assess the role of NK cells and macrophages were used—two principal cell types capable of conferring FcγR dependent antitumor effects—for BI-505 therapeutic activity; Firstly, the relative abundance of these cell types in tumor tissue harvested from BI-505 or control antibody treated mice were examined. […] In contrast, very few intratumoral NK cells could be detected (CD49b^+ CD31^− cells). […] To verify this macrophages or NK cells were depleted, using clodronate liposomes and anti-asialo antibodies respectively, from SCID mice bearing established RPMI-8226 myeloma tumors and examined the effect on BI-505 anti-myeloma activity. A period of three weeks of macrophage and NK cell depletion was chosen as read out since this was the longest time-period where neither treatment affected animal well-being. […] Tumors of macrophage depleted BI-505 treated mice had doubled in size compared with tumors from animals receiving BI-505 treatment alone (VBI-505=95±39 mm^3, VBI-505+clodro=189±94 mm^3, p<0.001), but were similarly sized compared to tumors from control antibody treated mice (Vctrl IgG=198±90 mm^3, p>0.05). NK cell depletion, in contrast, had little or no effect on BI-505 antitumor activity. […]
Treatment with antibodies by intraperitoneal injection started either 1 day after cell inoculation (prophylactic model) or when tumors reached approximately 100 mm^3 (established model). […] Macrophage and NK cell depletion was assessed upon termination of tumor bearing mice exposed to effector cell depleting agents (see above), spleens were removed and splenocytes isolated by mincing through a cell strainer (70 μm nylon mesh, BD Falcon 352350), erythrocytes were removed by lysis according to manufacturer (BD Pharm Lyse 555899, BD Biosciences). […]

B1: B11: fully human IgG1 antibody specific for ICAM-1; VH and VL sequences of FIG. 10 (SEQ ID NOs. 6 and 8) (antibody, listed as Homo sapiens, V domains shown)
VH: EVQLLESGGGLVQPGGSLRLSCAASGFTFSNAWMSWVRQAPGKGLEWVAFIWYDGSNKYYADSVKGRFTISRDNSKNTLYLQMNSLRAEDTAVYYCARYSGWYFDYWGQGTLVTVSS
VL: QSVLTQPPSASGTPGQRVTISCTGSSSNIGAGYDVHWYQQLPGTAPKLLIYDNNNRPSGVPDRFSGSKSGTSASLAISGLRSEDEADYYCQSYDSSLSAWLFGGGTKLTVLG
Turning to B1, the “Apoptosis Induction” value with PC-3 cells was “induce apoptosis”. The “T cell proliferation” value in the series on T cells was “did not induce T cell proliferation”. Besides, the tumor volume with RPMI-8226 myeloma tumors (BI-505 treatment alone, three weeks) is 95±39 mm^3; in the series with RPMI-8226 myeloma tumors (NK cell depleted (anti-asialo) BI-505 treated mice), 130±53 mm^3; in the series with RPMI-8226 myeloma tumors (macrophage depleted (clodronate liposomes) BI-505 treated mice), 189±94 mm^3.
